Results reported in patent US20200362026A1 (INSTITUTE FOR RESEARCH IN BIOMEDICINE, published 2020).

T1: FcγRIIa (UniProt P12318 34-317, limits assumed)
T1 construct: whole, on cells; also called FcgRIIa; Fcγ receptor IIa
T1 sequence (looked up): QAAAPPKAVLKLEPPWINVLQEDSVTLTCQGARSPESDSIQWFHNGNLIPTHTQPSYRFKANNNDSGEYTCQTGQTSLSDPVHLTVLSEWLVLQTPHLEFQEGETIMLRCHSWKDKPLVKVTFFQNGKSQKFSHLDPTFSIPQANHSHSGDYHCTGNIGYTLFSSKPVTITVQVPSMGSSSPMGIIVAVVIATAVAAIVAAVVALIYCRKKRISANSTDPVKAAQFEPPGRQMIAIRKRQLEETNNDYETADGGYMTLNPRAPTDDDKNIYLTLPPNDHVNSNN

T2: FcγRIIb (UniProt P31994 43-310, limits assumed)
T2 construct: whole, on cells; also called FcgRIIb; Fcγ receptor IIb
T2 sequence (looked up): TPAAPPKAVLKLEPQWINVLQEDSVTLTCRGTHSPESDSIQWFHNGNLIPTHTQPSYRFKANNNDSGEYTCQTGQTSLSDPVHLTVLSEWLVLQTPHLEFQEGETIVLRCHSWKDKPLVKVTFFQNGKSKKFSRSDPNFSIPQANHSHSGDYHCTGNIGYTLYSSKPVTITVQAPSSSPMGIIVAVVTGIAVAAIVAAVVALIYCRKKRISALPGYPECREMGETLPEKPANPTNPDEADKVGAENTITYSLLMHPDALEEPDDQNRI


What was measured:
[1] = biological target: T1, FcγRIIa; test: flow cytometry, TZM-bl cells expressing FcγRIIa, mAb alone (w/o GM-CSF)
Protocol: (§1) Expression of specific FcγRs was assessed by staining TZM-b1 cells with FITC-conjugated anti-CD64 (anti-FcγRI), anti-CD32 (anti-FcγRIIa and anti-FcγRIIb) and anti-CD16 (anti-FcγRIIIa) antibodies (all from BD Pharmingen). Untrasfected and transfected TZM-b1 cells were washed with staining buffer (PBS with 10% Fetal Bovine Serum and 2 mM EDTA) and seeded in 96-well-plates at a density of 50,000 cells per well. […] The LALA versions of all antibodies and a mAb with a different specificity were included as controls. Samples were incubated at 37° C. for 30 min to allow the formation of immune complexes and then cooled down to 4° C. before adding them to TZM-b1 cells for 30 min. Cells were washed twice and stained with anti-human IgG Fcγ fragment specific F(ab′)2 fragment (Jackson ImmunoResearch). Samples were analyzed on BD FACSCanto (BD Biosciences) and median intensity fluorescence was analyzed and compared between samples.
(§2) To address the engagement of Fcγ receptors, immune complexes formed between GM-CSF and multispecific antibodies were tested for their capacity to bind to TZM-b1 cells expressing FcγRIIa and FcγRIIb receptors. Multispecific antibodies were mixed with 0.05 μg/ml of GM-CSF, or staining buffer. Samples were incubated at 37° C. for 30 min to allow the formation of immune complexes and then cooled down to 4° C. before adding them to TZM-b1 cells for 30 minutes. Cells were washed twice and stained with anti-human IgG Fcγ fragment specific F(ab′)2 fragment. Samples were analyzed on BD FACSCanto (BD Biosciences) and median intensity fluorescence was analyzed and compared between samples.

[2] = biological target: T2, FcγRIIb; test: flow cytometry, TZM-bl cells expressing FcγRIIb, immune complex with high GM-CSF
Protocol: as §1, §2

[3] = biological target: T1, FcγRIIa; test: flow cytometry, TZM-bl cells expressing FcγRIIa, immune complex with low GM-CSF
Protocol: as §1, §2

[4] = biological target: T3, human GM-CSF (granulocyte macrophage-colony stimulating factor) (human, UniProt P04141 18-144); test: ELISA on GM-CSF
T3 construct: Soluble cytokine used in ELISA, SPR, TF-1 bioassay and immune complex formation; also called recombinant GM-CSF
T3 sequence (P04141 18-144 limits assumed): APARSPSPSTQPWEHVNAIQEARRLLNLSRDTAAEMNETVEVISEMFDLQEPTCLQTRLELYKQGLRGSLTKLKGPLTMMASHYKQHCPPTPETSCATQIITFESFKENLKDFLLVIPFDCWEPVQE

[5] = biological target: T1, FcγRIIa; test: flow cytometry, TZM-bl cells expressing FcγRIIa, immune complex with high GM-CSF
Protocol: as §2

[6] = biological target: T2, FcγRIIb; test: flow cytometry, TZM-bl FcγRIIb cells; average ratio of binding in presence and in absence of GM-CSF
Protocol: as §1, §2

[7] = biological target: T1, FcγRIIa; test: flow cytometry, TZM-bl FcγRIIa cells; average ratio of binding in presence and in absence of GM-CSF
Protocol: as §2

[8] = biological target: T3, human GM-CSF (granulocyte …); test: cell-based or functional assay
[9] = biological target: T2, FcγRIIb; test: flow cytometry, TZM-bl cells expressing FcγRIIb, immune complex with low GM-CSF
Protocol: as §1, §2

[10] = biological target: T2, FcγRIIb; test: flow cytometry, TZM-bl cells expressing FcγRIIb, mAb alone (w/o GM-CSF)
Protocol: as §1, §2

Binder | MFI [1] [MFI] | MFI [2] [MFI] | MFI [3] [MFI] | EC50 [4] [ng/mL] | MFI [5] [MFI] | Average RATIO FcgRIIb [6] [ratio] | Average RATIO FcgRIIa [7] [ratio] | IC90 less stringent conditions (50 pg/ml GM-CSF, 1,000 TF-1/well) [8] [ng/mL] | IC90 more stringent conditions (500 pg/ml GM-CSF, 1,000 TF-1/well) [8] [ng/mL] | IC90 stringent conditions (50 pg/ml GM-CSF, 10,000 TF-1/well) [8] [ng/mL] | IC90 very stringent conditions (500 pg/ml GM-CSF, 10,000 TF-1/well) [8] [ng/mL] | MFI [9] [MFI] | MFI [10] [MFI]
Bs3GC1a bispecific antibody (bispecific antibody, human IgG1, kappa, Bispecific tetravalent IgG1, construct type Bs3; specificities GCE536 + GCA7) heavy: not shown light: EIVLTQSPGTLSLSPGETAILSCRASQSVSSSLLAWYQQKPGQAPRLLIYGASNRATGIRGRFSGSGSGTDFTLTISRLEPEDFVLYYCQHYGSRVTFGQGTKLEIKRTVAAPSVFIFPPSDEQLKSGTASVVCLLNNFYPREAKVQWKVDNALQSGNSQESVTEQDSKDSTYSLSSTLTLSKADYEKHKVYACEVTHQGLSSPVTKSFNRGEC | 687 | 510000 | 1270 | 74.3 | 65300 | 16.6 | 48.4 | 0.681 | 4.72 | 0.963 | 6.24 | 175000 | 20600
Bs1GC2a bispecific antibody (bispecific antibody, human IgG1, kappa, Bispecific tetravalent IgG1, construct type Bs1; specificities GCE536 + GCB59) heavy: not shown light: EIVLTQSPGTLSLSPGETAILSCRASQSVSSSLLAWYQQKPGQAPRLLIYGASNRATGIRGRFSGSGSGTDFTLTISRLEPEDFVLYYCQHYGSRVTFGQGTKLEIKRTVAAPSVFIFPPSDEQLKSGTASVVCLLNNFYPREAKVQWKVDNALQSGNSQESVTEQDSKDSTYSLSSTLTLSKADYEKHKVYACEVTHQGLSSPVTKSFNRGEC | 662 | 1.44e+06 | 9140 | 16.2 | 566000 | 77.8 | 435 | 2.77 | 9.92 | 31.4 | 217 | 398000 | 11800
Bs3GC3b bispecific antibody (bispecific antibody, human IgG1, lambda, Bispecific tetravalent IgG1, construct type Bs3; specificities GCA7 + GCB59) heavy: not shown light: SYVLTQPPSVSVAPGQTASLTCGGTNIGSKSVHWYQQKAGQAPVLVVYADNDRPSGVPERFSGSNSGNTATLTISRVEAEDESDYFCQVWDGNTDHVVFGGGTKLTVLGQPKAAPSVTLFPPSSEELQANKATLVCLISDFYPGAVTVAWKADSSPVKAGVETTTPSKQSNNKYAASSYLSLTPEQWKSHRSYSCQVTHEGSTVEKTVAPTECS | 650 | 433000 | 8290 | 587 | 55000 | 93.3 | 48.7 | 1.28 | 17.8 | 2.96 | 124 | 57800 | 2630
Bs3GC5 bispecific antibody (bispecific antibody, human IgG1, kappa, Bispecific tetravalent IgG1, construct type Bs3; specificities GCA21 + GCA7) heavy: not shown light: DIQMTQSPSTLSTSVGDRVTITCRASQNILNWLAWYQQKPGNAPNLLIYKASDLQSGVPSRFSGSGSGTEFTLTISSLQPDDFATYYCQHYNSYPLTFGGGTKVEIKRTVAAPSVFIFPPSDEQLKSGTASVVCLLNNFYPREAKVQWKVDNALQSGNSQESVTEQDSKDSTYSLSSTLTLSKADYEKHKVYACEVTHQGLSSPVTKSFNRGEC | 1100 | 1.58e+06 | 30200 | 41.8 | 468000 | 5.58 | 226 | 1.3 | 6.46 | 4.18 | 10.2 | 393000 | 177000

Results, then the binder that gave them:

MFI [1] [MFI] | MFI [2] [MFI] | MFI [3] [MFI] | EC50 [4] [ng/mL] | MFI [5] [MFI] | Average RATIO FcgRIIb [6] [ratio] | Average RATIO FcgRIIa [7] [ratio] | IC90 less stringent conditions (50 pg/ml GM-CSF, 1,000 TF-1/well) [8] [ng/mL] | IC90 more stringent conditions (500 pg/ml GM-CSF, 1,000 TF-1/well) [8] [ng/mL] | IC90 stringent conditions (50 pg/ml GM-CSF, 10,000 TF-1/well) [8] [ng/mL] | IC90 very stringent conditions (500 pg/ml GM-CSF, 10,000 TF-1/well) [8] [ng/mL] | MFI [9] [MFI] | MFI [10] [MFI] | Binder
2850 | 397000 | 4130 | 33.5 | 9870 | 3.96 | 2.46 | 0.265 | 3.17 | 0.281 | 2.53 | 136000 | 67200 | Ts1GC2a trispecific antibody (antibody, human IgG1, kappa, Trispecific hexavalent IgG1, construct type Ts1; specificities GCE536 + GCA7 + GCB59) heavy: not shown light: EIVLTQSPGTLSLSPGETAILSCRASQSVSSSLLAWYQQKPGQAPRLLIYGASNRATGIRGRFSGSGSGTDFTLTISRLEPEDFVLYYCQHYGSRVTFGQGTKLEIKRTVAAPSVFIFPPSDEQLKSGTASVVCLLNNFYPREAKVQWKVDNALQSGNSQESVTEQDSKDSTYSLSSTLTLSKADYEKHKVYACEVTHQGLSSPVTKSFNRGEC
1310 | 652000 | 7900 | 29.6 | 122000 | 17.2 | 49.5 | 0.536 | 0.795 | 0.413 | 0.768 | 344000 | 29000 | Ts3GC2d trispecific antibody (antibody, human IgG1, kappa, Trispecific hexavalent IgG1, construct type Ts3; specificities GCE536 + GCA7 + GCB59; also called TsGC2d; TsgC2d) heavy: not shown light: EIVLTQSPGTLSLSPGETAILSCRASQSVSSSLLAWYQQKPGQAPRLLIYGASNRATGIRGRFSGSGSGTDFTLTISRLEPEDFVLYYCQHYGSRVTFGQGTKLEIKRTVAAPSVFIFPPSDEQLKSGTASVVCLLNNFYPREAKVQWKVDNALQSGNSQESVTEQDSKDSTYSLSSTLTLSKADYEKHKVYACEVTHQGLSSPVTKSFNRGEC
6910 | 1.3e+06 | 7130 | 48.6 | 269000 | 7.67 | 20 | 0.559 | 6.21 | 1.07 | 11.2 | 181000 | 96700 | Bs3GC2b bispecific antibody (bispecific antibody, human IgG1, lambda, Bispecific tetravalent IgG1, construct type Bs3; specificities GCE536 + GCB59) heavy: not shown light: SYVLTQPPSVSVAPGQTASLTCGGTNIGSKSVHWYQQKAGQAPVLVVYADNDRPSGVPERFSGSNSGNTATLTISRVEAEDESDYFCQVWDGNTDHVVFGGGTKLTVLGQPKAAPSVTLFPPSSEELQANKATLVCLISDFYPGAVTVAWKADSSPVKAGVETTTPSKQSNNKYAASSYLSLTPEQWKSHRSYSCQVTHEGSTVEKTVAPTECS
6730 | 62600 | 24500 | 32.3 | 19500 | 0.81 | 3.26 | 9.26 | 97.5 | 90.8 | 739 | 137000 | 123000 | Bs3GC4 bispecific antibody (bispecific antibody, human IgG1, kappa, Bispecific tetravalent IgG1, construct type Bs3; specificities GCA21 + GCE536; also called BsGC4) heavy: not shown light: DIQMTQSPSTLSTSVGDRVTITCRASQNILNWLAWYQQKPGNAPNLLIYKASDLQSGVPSRFSGSGSGTEFTLTISSLQPDDFATYYCQHYNSYPLTFGGGTKVEIKRTVAAPSVFIFPPSDEQLKSGTASVVCLLNNFYPREAKVQWKVDNALQSGNSQESVTEQDSKDSTYSLSSTLTLSKADYEKHKVYACEVTHQGLSSPVTKSFNRGEC
